Here are results for 3 compounds from patent US7696313B2, “Prodrug compounds with isoleucine” (priority 2000, dated 2010).

Structures are written as SMILES. Where “and” joins values, the source holds several entries; their conditions need not be identical. Identical values can stand only once. Like-named read-outs stand apart in the source and are kept apart here.

Series [1] has as its system HT-29 (colon carcinoma) cells. The settings on record: read-out: IC50 HT29; 48 hours, 3H-thymidine incorporation. As to the method: (§1) Adherent cells, LNCaP (prostate carcinoma), HT-29 (colon carcinoma) and PC-3 (prostate carcinoma), were cultured in DMEM media containing 10% heat inactivated fetal calf serum (FCS). On the day of the study the cells were detached from the plate with a trypsin solution. The collected cells were washed and resuspended at a concentration of 0.25×10^6 cells/ml in DMEM containing 10% FCS. 100 μl of cell suspension were added to 96 well plates and the plates were incubated for 3 hours to allow the cells to adhere. […] The plates were then incubated for 24 hours, pulsed with 10 μl of a 100 μCi/ml ^3H-thymidine and incubated for an additional 24 hours (total incubation time 48 hours). The plates were harvested using a 96 well Harvester (Packard Instruments) and counted on a Packard Top Count Counter. Four parameter logistic curves were fitted to the ^3H-thymidine incorporation as a function of drug molarity using Prism software to determine IC50 values.
(§2) Prostate carcinoma cells, LNCaP and PC-3 cells or colon carcinoma cells HT-29, were incubated with increasing concentration of the indicated compounds for 48 hours and cellular proliferation was measured using the ^3H-thymidine assay.
(Dividing cells build labelled thymidine or BrdU into new DNA.)

In series [2] the test system is PC-3 (prostate carcinoma) cells. The settings on record: read-out: IC50 PC-3; 48 hours, 3H-thymidine incorporation. As to the method:
as §1, §2

Series [3] concerns LNCaP (prostate carcinoma) cells. The settings on record: read-out: IC50 LNCaP; 48 hours, 3H-thymidine incorporation. Here is the method: as §1, §2
For series [4] the following is noted: mouse, in vivo, iv, 100 umol/kg.
Procedure: Plasma was obtained from three individual animals in each group at 5 minutes, 1, 2, 4, or 6 hr.
A short description of series [5]: Metabolism and clearance in normal mice (plasma and urine, LC MS/MS). The class given is in vivo. The settings on record: after Suc-Ile-Ala-Leu-Dox 117 mg/kg. Here is the method:
The metabolism and clearance of Suc-Ile-Ala-Leu-Dox was studied in normal mice. The mice were administered Suc-Ile-Ala-Leu-Dox at a single intravenous bolus dose of 117 mg/kg. Plasma samples were obtained at 1 and 4 hours. Plasma samples of 100 μl were transferred to Eppendorf tubes (1.5 mL) and an internal standard of daunorubicin (20 μL at 0.5 mg/ml) was added together with acetonitrile (400 μl). The tubes were capped and briefly vortexed followed by centrifugation at 14,000 rpm. 420 μl from each tube was removed and dried in vacuo. Each sample was reconstituted in 65 μl ammonium formate containing acetonitrile (20%) prior to analysis by reverse phase liquid chromatography in combination with tandem mass spectrometry (LC MS/MS).
Urine was collected at 2 and 24 hours post administration from pairs of mice in metabolic cages. Urine samples were diluted with ammonium formate containing acetonitrile (20%) to give a target analyte concentration within the practical range of the LC MS/MS assay. 30 μl of each diluted sample was placed in an Eppendorf tube (1.5 ml) and an internal standard of daunorubicin (20 μL at 0.5 mg/ml) was added together with 50 μl of ammonium formate containing acetonitrile (20%). Each sample was then analyzed by LC MS/MS.
An Agilent HP 1100. HPLC with DAD detector and Chemstation software was coupled to a PE Sciex API 365 mass spectrometer with an electrospray ion source.
HPLC was performed on a TSK-Gel Super ODS, […], 4.6×50 mm (TosoHaas) reversed phase column equipped with a […] C18 guard disc (Higgins Analytical) and stainless steel frit (Upchurch Scientific). Chromatography was performed at room temperature. The flow rate was 0.5 ml/min. Injection volume was 50 μl. Gradient elution was performed using a mobile phase of 20 mM ammonium formate with increasing amounts of acetonitrile. The API 365 was operated at 365° C. in a multiple reaction monitoring mode, set to monitor specific analyte parent-daughter ion pairs. Integration of chromatograms was performed by MacQuan software (PE Sciex) and quantitation of each analyte obtained by comparison to previously obtained calibration curves. Daunorubicin was used as an internal standard in all cases.
Percent of administered dose—plasma volume estimated at 40% of blood volume, which was calculated at 7% of animal's body weight.
Plasma samples were obtained at 1 and 4 hours from separate mice. Urine was collected at 2 and 24 hours post administration from pairs of mice in metabolic cages. The plasma and urine samples were prepared and analyzed as described in Example 4.

Series [6] relates to normal mice. As to the kind of experiment: Initial single dose Maximum Tolerated Dose (MTD) study, 28 days. In kind it is in vivo. As to the method:
(§3) In our initial single dose Maximum Tolerated Dose (MTD) study, groups of five normal mice were administered intravenous bolus doses of Suc-Ile-Ala-Leu-Dox. The mice were observed daily for 28 days and body weights measured twice weekly.
(§4) The mice were observed daily for 28 days and body weights measured twice weekly.
(§5) In the single dose Maximum Tolerated Dose (MTD) studies, groups of normal mice were administered intravenous bolus doses of the prodrug. The mice were observed daily for 28 days and body weights measured twice weekly. The MTD was estimated to be equal to the highest dose that produced no death in mice after 28 days.

Assay in series [7]: as above
In kind it is in vivo, mice. The settings on record: mouse, in vivo. As to the method: as §3, §4, §5

For series [8], the system named is normal ICR mice. As to the kind of experiment: Second single dose Maximum Tolerated Dose (SD-MTD) study, 49 days. As to the method: In a second single dose Maximum Tolerated Dose (SD-MTD) study, groups of five normal ICR mice were administered intravenously bolus doses of Suc-Ile-Ala-Leu-Dox. The mice were observed daily for 49 days and body weights measured twice weekly.
In a second single dose Maximum Tolerated Dose (SD-MTD) study, groups of five normal ICR mice were administered intravenous bolus doses of Suc-βAla-Ile-Ala-Leu-Dox. The mice were observed daily for 49 days and body weights measured twice weekly.

Series [9] has as its system carcinoma cell trouase (MCF 7/6 cell homogenate, MCF 7/6 conditioned media, HeLa cell extract anion exchange fraction pool). As to the kind of experiment: Cleavage assay with carcinoma cell enzyme (trouase) preparations. The class given is biochemical, human. As to conditions: under appropriate assay conditions. As to the method:
A good candidate for a prodrug with improved therapeutic index is activated by cancer cells but relatively stable in whole human blood. Three different preparations of carcinoma cell trouase were used to screen various test compounds. These three preparations were as follows:
(a) MCF 7/6 (breast carcinoma) cell homogenate
(b) MCF 7/6 (breast carcinoma) conditioned media, and
(c) HeLa (cervical carcinoma) cell extract anion exchange fraction pool.
MCF 7/6 cells were grown to confluence in a serum free medium containing DMEM:F12 (1:1), 50 mg/L bovine serum albumin, ITS-X (10 mg/L insulin, 5.5 mg/L transferrin, 6.7 μg/L Na selenite, 2 mg/L ethanolamine), and Lipid Concentrate (Gibco #21900-030)100 mL of cells were harvested by centrifugation at 4° C. 10,000×g, for 20 min and decanting the supernatant. The pellet was resuspended in 2 mL phosphate buffered saline (Gibco) and centrifuged at 18,000×g for 10 min. […]
A portion of the ultracentrifugation supernatant was diluted 2-fold with a 20 mM triethanolamine-HCl pH 7.2 buffer containing 0.01% (w/v) Triton X-100 and 0.02% (w/v) sodium azide (equilibration buffer). […] Its transformation into Ala-Leu-Dox was quantified by reverse phase high performance liquid chromatography utilizing fluorescence detection of the anthracycline moiety. […]

As usually defined, the IC50 is the midpoint of a concentration-inhibition curve. In general, AUC(0-t) refers to the area under the concentration-time curve up to a stated or last time point.

As for `CC[C@H](C)[C@H](NC(=O)CCC(=O)O)C(=O)N[C@@H](C)C(=O)N[C@@H](CC(C)C)C(=O)N[C@H]1C[C@H](O[C@H]2C[C@](O)(C(=O)CO)Cc3c(O)c4c(c(O)c32)C(=O)c2c(OC)cccc2C4=O)O[C@@H](C)[C@H]1O` [Suc-Ile-Ala-Leu-Dox], the IC50 was 47 µM in series [1], 88 µM in [2] and 1100 nM in series [3]. The compound further showed an AUC(0-t) in series [4] of 452 µM·h. Besides, the “Urine 2 hr, percent of administered dose” value in series [5] (collected 0-2 hours) is reported as 3.9 % of administered dose. Moreover, in series [5] (collected 2-24 hours), the “Urine 24 hr, percent of administered dose” value is 15.0 % of administered dose. Besides, the “single dose MTD fold higher than doxorubicin alone, after post-analysis” value in series [6] (about 75% active compound, versus doxorubicin […] mg/kg) is “at least 3.3 fold”. The mortalities result in series [6] (doses up to 117 mg/kg, 28 days) is listed as “no mortalities”. Besides, the acute toxicity result in series [6] (intravenous bolus, all dose levels tested) was “no acute toxicity”. Moreover, in [6] (intravenous bolus, normal mice, 28 days), the “single-dose MTD, doxorubicin equivalent” value was 66 mg of doxorubicin/kg and 70 mg of doxorubicin/kg. Besides, the “single-dose MTD fold higher than doxorubicin alone” value in series [6] (versus doxorubicin 4 mg/kg) was “at least 16 fold”. Further, the MTD in series [7] (28 days, uncorrected doses, read-out: SD MTD (mg/kg), Table 7) was over 117 mg/kg; in series [7] (SD MTD, doxorubicin equivalent dose, Table 8, value in parentheses, corrected results), 56 mg/kg; in series [7] (SD MTD, molar equivalent dose of doxorubicin, Table 7, value in parentheses, uncorrected), over 70 mg/kg; in series [7] (corrected results, read-out: SD MTD (mg/kg), Table 8), 94 mg/kg. In [8] (any dose level), the “acute toxicity within 24 hours” value is on record as “no acute toxicity”. The “SD-MTD (mg/kg Dox=)” value in series [8] (doxorubicin equivalent) was 56 mg/kg Dox= and 58 mg/kg Dox=. The “Major Plasma Metabolite, Table 7” value (mice) is on record as “Leu-Dox”. In addition, the “Major Plasma Metabolite, Table 8” value (mice) is “Leu-Dox”. Also, for the setting “tripeptide vs tetrapeptide counterpart, leucine vs isoleucine compounds”, the “relative exposure to doxorubicin” value is “two fold decrease”.

Take `CC[C@H](C)[C@H](NC(=O)CCNC(=O)CCC(=O)O)C(=O)N[C@@H](C)C(=O)N[C@@H](CC(C)C)C(=O)N[C@H]1C[C@H](O[C@H]2C[C@](O)(C(C)=O)Cc3c(O)c4c(c(O)c32)C(=O)c2c(OC)cccc2C4=O)O[C@@H](C)[C@H]1O` [succinyl-βAla-Ile-Ala-Leu-Daunorubicin]: the “cleavage activity of trouase” value in [9] is on record as “at least twenty-fold less active”.

With `COc1cccc2c1C(=O)c1c(O)c3c(c(O)c1C2=O)C[C@@](O)(C(C)=O)C[C@@H]3O[C@H]1C[C@H](NC(=O)[C@H](CC(C)C)NC(=O)[C@H](C)NC(=O)[C@H](CC(C)C)NC(=O)CCNC(=O)CCC(=O)O)[C@H](O)[C@H](C)O1` [succinyl-βAla-Leu-Ala-Leu-Daunorubicin, reference compound], the “cleavage activity of trouase” value in series [9] is reported as “readily cleaves”.
